Test: soluble on expression in E. coli; label from the status in PepcDB or PDB records
For “SLSHRTDGSLLFPLSLVHINDIHAHWEEIDTASVTCDPKRDGAAEQCLGGYARTVTIVRQLLQERPNPVYLNIGDNFQGTLWYNIHRWNATAFFLNLLPADAVTVGNHEFDDGIAGVVPFLEAIQSPVLLVNVDNSKEPSFSKFRPSMVLERAGRKIGLIGVILRTTYNMADTGALVFEDEAETVRLEADRLAAEGVDIVVVLSHCGLDVDHIIAANAGPNVDIIVGGHSHSFLYSGQNDKIPMTPASEYPTVVNQPDGHRVLIVQASAYTKLVGDIVLYFDDQGIVQHWEGNPIYLSNDIVPDAEVLEAIAPWKVAIDAVGERTIGATAVDLLKPPCNFGECVLGNLIADSMVEAFVPMAEEGSWTYASIAAIAVGRIRQSLVPGDISFKHLIEVLPFENKLVCLELRGFQLVGLLEHGAELSWDEHRFNAKNLMHVSGLRVVYNVTNPIGHRVLSVEALCQDCSMPSYAPVEMFKMYRVVTVSYLAEGGDGFEIFPRYGRNRVVAPMDDVQAFEEYVKPRSPVAPVLEERIQILN”, the “soluble on expression in E. coli” value was “not soluble”. With “MTSPSSDEDIIDIRVIKEEPESEPDSEAEPATTTNSTDSEDSVEQENKKLLETEKNRKREQKHKMLPNGTTSGTSDTGNQVPATSSAASSVDYTAMNAQDYLPTYSNTTLNYQPYQYQTAANGLLNYNNYSQYATANQLGSNYISPANFMQGGGISPLGFTTGTTGATTAAASVATSSASAVIGRSNGRSSSTVAASPADRSYSGVSGGQGQELTIQEFETVTEKIRRHGTYGQSKPPYSYISLITMAIQKSNSRQLTLSEIYNWIMDLFPYYQNNQQRWQNSIRHSLSFNDCFVKVARSPDKPGKGSFWTLHEHCGNMFENGCYLRRQKRFKVKEREPSRKKRNANSQQLHQQQHIPKMEIKEEDPTSITTTSSLGAYSLIPQISTKKEIKEELKAVQDATAAAANLGLIDPSGTPSAVNHSQPTSVISSVGTLGTTQAQMTLNGQYASPYLYSSDFATILPQSQNFLNNTLYNTTSSYPGIDYTNGVYQNTLYSSTNPNSAANL” the “soluble on expression in E. coli” value was “not soluble”. For “MEQLRAAARLQIVLGHLGRPSAGAVVAHPTSGTISSASFHPQQFQYTLDNNVLTLEQRKFYEENGFLVIKNLVPDADIQRFRNEFEKICRKEVKPLGLTVMRDVTISKSEYAPSEKMITKVQDFQEDKELFRYCTLPEILKYVECFTGPNIMAMHTMLINKPPDSGKKTSRHPLHQDLHYFPFRPSDLIVCAWTAMEHISRNNGCLVVLPGTHKGSLKPHDYPKWEGGVNKMFHGIQDYEENKARVHLVMEKGDTVFFHPLLIHGSGQNKTQGFRKAISCHFASADCHYIDVKGTSQENIEKEVVGIAHKFFGAENSVNLKDIWMFRARLVKGERTNL”, the “soluble on expression in E. coli” value was “not soluble”. With “AMNAYYIQDRLEAQSWARHYQQLAREEKEAELADDMEKGIPQHLFESLCIDHLQRHGASKKSITRAFDDDVEFQERMAEHIRYMVETIAHHQVDIDSEV” the “soluble on expression in E. coli” value was “soluble”. With “MAHHHHHHMYSQRLSRVSPYLSNGSLSPRRFYEMLRRYATENLRDNFVQMQYREALLRLSRRDYWHWMGLRYGTLLFFPYGPRPEQTDNIPDWRHDEKIVQKWCAGLTGVPFADAAMRELLTTGFVAHEGRQALAWLLTRGYGQDWRLGAEWLERCSLDYDPFLCYGNFAYFSELILDDFGEPVRSVHWLAHHHDQTGIYVKKWLPLLSKIPPVYIHRPHVLTPRMQAMHGVRLGKTYPYPLKLWDGAQYMLGSDELTTYFDDSSAWHRKTKSGAGGPGHAEALRHGKAIMKVREWNAAILPEEVAQRPWAHHLPASAFESSEDEVETLQMRQRNQNQPTRHGQLSL” the “soluble on expression in E. coli” value was “not soluble”. In the case of “MASSSSSSEHKVFLSFRREDTGRTFVSHLYRSLDQKEIRTYKFENQQAGDGKRISSEVKQAINESRIAVVVISENYVSSVLCLDVLAKIIERLPLIKIETVFYEVDPGDLTRPTGKFADDFRRHEARENRRTVNRWRDALDQLVSITNSNFCSRNWEDDSKMIDDLIIRLINIYFSKYYTPDVDIIAETTVGLDASVLGLMTDIDMKYKLNSLSGSVESGFGLERYALEATSVMDDMSNESPSPTSDDSNGLVGMYRHKKAVYGLLDLESKNQVRTIGIWGFQGVGKTTLAECVFDDISSHFQHYCFLTNANKIYQNRISPSLLKHLTRRRSSEDIFDAIKPSLVNRKVLFVVDGVDATYNEQFNDAMKVTRWLGPGSRIIMTSRFKSSLKFGGAKYEMECLRYEEALQLFSLYAFKKTYPLIGFELFSIRAVHFAGRLPLSLKVLGSFLYDKDEESWKRTLHKLEASQDNDRRYVSNYIGAGEYLPRRQIELEQYVSPDEEEYSPSYIMSL”, the “soluble on expression in E. coli” value was “soluble”. With “SIKNGILYLEDPVNHEWYPHYFVLTSSKIYYSEETSSDQGNEDEEEPKEASGSTELHSSLEVLFQGPNPAILEPEREHLDENSPLGDLLRGVLDVPACQIAIRPEGKNNRLFVFSISMPSVAQWSLDVAADSQEELQDWVKKIREVAQTA” the “soluble on expression in E. coli” value was “soluble”. For “MGSDKIHHHHHHLKQKILHIIDSFSTGGAEVLLAGVIPELVDFEHVIVYLTPTKTPILSSDPTIKIVCLNFRSITDATRIIKDLNTIIEQEKPGIIHTHLYFSSLFIRFARTNKINIIQTYHNEYYRIRYPQFSARIKKIGLKLLDRFTMKNAYTVIHVSKAQQLVNDHDVRIKSSAVLYNYVEDQFYQTRKTSSFKGTGKLKIICVGNLKTEKNHILLLHALRQLMHLPIHVTICGEGNDYIMLQKYINRYDLPVTLMGSQKNIHELLGQHDLFVSCSIIEGFGISIAEAMASEIPLIISDISTFKEVTQNKAVFFESRNVASLAEKIEQFYLSPQSAAASVLACKEIAEQYKKSFYLDRLNTLYKK”, the “soluble on expression in E. coli” value was “not soluble”. For “MIFMHPKTLEILKMFEEINKIPRRSKNEEKLALWLMEWAKNHNFEAKTDALNNVLIKVPPTPGYENSPAIVLQGHMDMVCEKCRDSGHDFSKDPIICIYEGDWLRGDGTSIGADNGIALAIGLVLAESGIKGEIEHPPLELLFTVDEETGLTGASGLEEDFFEGRILLNLDSEDEGIFILGCAGGQNSRIFLPLQWESFDYGKGSGFGLFRISAEGLEGGHSGVEIHRQRANGIQLLARMLSALKEKVGKENLRLVFFSGGSVHNAIPNYAEAFIVLSRNNEKQAEDFVSGLQKSFRGEYAVSDPEITLQLKEVENGIIFEASGGKITRKEVPSDRVFSVETEEKLYGVLLGMPHGVHRVSDTIPGLVETSNNLATVRTGEKEVRIVSSQRSSVMSRLAEVTEKVETVAKLAGARVEHECGYPAWEPDLQSGLLMKCRHAYSGTFGKEPEIKVVHAGLECGVIGSKCECIEMISFGPTIKDPHSPAERVYIPSIEKVWVFLENLMKSYRLEHHHHHH”, the “soluble on expression in E. coli” value was “soluble”. With “MSNNNSGSSNQLLVRGAEQALDQMKYEIAQEFGVQLGADATARANGSVGGEITKRLVSLAEQQLGGGVTR” the “soluble on expression in E. coli” value was “soluble”. In the case of “MAHHHHHHMEKDGYTKLSEEEEQQLDNCRACMALTAVFMEEVMKPTEKLQHQLHQQQQQEGSAPRTPKNSDAVRSGERQRLVTNVHDAIDKLCDRVKERNNQVDASYDKGKEERDEKSESTEGGPIWYVSVNTAACEVALEEVSEALAREAFAQLLPERVAGTRGGGPSAVCEQENLCTARLSQHVKSEEEKAKAELEKEMRRQRELSRKNPKETLALQRAVAVGVGIMVIALWLRGRQSAKPEGDVKKD”, the “soluble on expression in E. coli” value was “not soluble”. In the case of “MNAAEVIVYEHVNFGGKSFDATSDQPGAGDNLNDKISSIKVKSGTWRFYEYINYGGRYWDLGPGEYSSVESAGIPDNSISSFRQI”, the “soluble on expression in E. coli” value was “soluble”. With “MGGIGRIGILGSGSWATALAKIILTSQPSINWFMRREEQAQGIKRTGRNPNYLRDAVFDPRKISFFTDSDLNSFFRASDVVVLVTPSPFIKSYLKRVRSSSMRDKLIINAIKGIVPDENVLVSEYLHDFCDVPNELIGVVSGPCHAEEVARERRSYLTVGCFDINKAKAMANVLRNDYVSCTTSQDVVGIEYASVLKNVYAIAAGICNGLQYGDNFQSVLMSNAIAEMNSFVNTVHLLEREITDSVYLGDLLVTAYSNYSRNRTFGNMIGKGYSVKSAQMEMEMIAEGYYGAKCVREVNKRYQVNMPIMNTVYEVLYEKRDAAEAITALTAHFK” the “soluble on expression in E. coli” value was “not soluble”. In the case of “MGSDKIHHHHHHAADWQLEKVVELSRHGIRPPTAGNREAIEAATGRPWTEWTTHDGELTGHGYAAVVNKGRAEGQHYRQLGLLQAGCPTAESIYVRASPLQRTRATAQALVDGAFPGCGVAIHYVSGDADPLFQTDKFAATQTDPARQLAAVKEKAGDLAQRRQALAPTIQLLKQAVCQADKSCPIFDTPWQVEQSKSGKTTISGLSVMANMVETLRLGWSENLPLSQLAWGKITQARQITALLPLLTENYDLSNDVLYTAQKRGSVLLNAMLDGVKPEANPNVRWLLLVAHDTNIAMVRTLMNFSWQLPGYSRGNIPPGSSLVLERWRNAKSGERYLRVYFQAQGLDDLRRLQTPDAQHPMLRQEWHQPGCRQTDVGTLCPFQAAITALGQRIDRSSAPAVAMVLP”, the “soluble on expression in E. coli” value was “not soluble”. In the case of “MGSDKIHHHHHHMESAKDITGRIFNIQKYSIYDGDGVRTLIFMKGCNIRCPWCANPEGIRRAYQILFSPDKCLHCGKCAEACPRGIHTLIADEYGSRFHHIDRTVQCTGCRKCEAACPSNALDIVGKDMTVAELMAVIMQDYSFYQSSGGGVTLSGGEVSLQTDFAVALLQACKQKMINTAVETQGTTSISHYDQLAAVTDMFLFDIKHIDTNQHKALFGIGNENIRRNLEHLVELGANIVIRMPLVRGYNDSYDAIMGAIHYVQKLAKRGNVRRIDILPYHQLGRKKYERLGMIYPIKADPSYNEEELNRLDAFFDEFDFDIRLVRH”, the “soluble on expression in E. coli” value was “not soluble”. In the case of “MSLTTATTSQTALRSRKDVPLSDCWDTKSLYASREVWQDELKKVGAEGAPFWPHLSENNFDIKQPSSLRELLTTVFSIERTLDKLYVYAHLTYDEDIANQEAAADLKSITFLLTSFVEEISWIQPALIALPQQVVNMLLASPELQEYHFYLKKLFRLAPHTGTSREEKILASSFPALEVAYKTFSSLTDSEIPFGEAVDSEGKSHPLSHALASLYMQSTDRELRKNTYQKQCQRHHGYRLSLANLLNGKIQAHLFNAKARDYDSCLEAALFQNDISTSVVTTLIDTVKQHTHLITEYFQLKQKALGLSDFHFYDVYAPLVASEASRHYSYQEAVTLICDSLSLLGNDYVETLRKGLTSDGWVDKYENTNKRSGAYSSGCYDSKPYILLNYTGTLYDVSVVAHEGGHSMHSFLSHKHQSYHEAQYPIFLAEIASTLNETLLMEFLLKQAPSKEEKIAILSRSLDTVFATLFRQTLFAAFELEMHSAAEQGLPLTEEFFSQSYEKLQRLFYGDCITFDEHSCIEWARIPHFYYNFYVYQYATGIIASLCFSERILSGEEGAQEAYLTFLRSGGSDFPIEILKKSGLDMTSSAPMLKAFSYIERKLEELASLLEGHHHHHH”, the “soluble on expression in E. coli” value was “soluble”. With “MSHIFDASVLAPHIPSNLPDNFKVRPLAKDDFSKGYVDLLSQLTSVGNLDQEAFEKRFEAMRTSVPNYHIVVIEDSNSQKVVASASLVVEMKFIHGAGSRGRVEDVVVDTEMRRQKLGAVLLKTLVSLGKSLGVYKISLECVPELLPFYSQFGFQDDCNFMTQRF” the “soluble on expression in E. coli” value was “soluble”. For “MFDDKILLITGGTGSFGNAVMKQFLDSNIKEIRIFSRDEKKQDDIRKKYNNSKLKFYIGDVRDSQSVETAMRDVDYVFHAAALKQVPSCEFFPVEAVKTNIIGTENVLQSAIHQNVKKVICLSTDKAAYPINAMGISKAMMEKVFVAKSRNIRSEQTLICGTRYGNVMASRGSVIPLFIDKIKAGEPLTITDPDMTRFLMSLEDAVELVVHAFKHAETGDIMVQKAPSSTVGDLATALLELFEADNAIEIIGTRHGEKKAETLLTREEYAQCEDMGDYFRVPADSRDLNYSNYVETGNEKITQSYEYNSDNTHILTVEEIKEKLLTLEYVRNELNDYKASMR”, the “soluble on expression in E. coli” value was “not soluble”. For “MAHHHHHHMQYINDEGYRIDGRKNDECRLIKISLGNGNELIDVDGFSFFEIGNTKLFAYIQGPNEYRRPDEKCLVKCNVFLSPFNILEKKRKKSKDNVTREISSYIRNICNHIILLDLYKNSEINIFLYIIERDGGLKAAAVNTCILALIDAGIAIKYFISASSVLYLQNNIIVDGNQFEVNSGSPELTLAIDMSSNNIVLLEFDAEVPIDIFQSMLKTCAQACIHVGNIMKLSIKENAIKLLSLNSILNT”, the “soluble on expression in E. coli” value was “not soluble”.

Reference: the DeepSol protein solubility set
